Data published in the supplement of paper PMC10567573.

B1: SFRS1 (parent)
chain: RDIDLKNRRGGPPFAFVEFEDPRD

Variants of: B1
Experiment: protein stability index of a GFP-peptide fusion (GPS, HEK-293T) (PSI 1-6); higher = more stable
Conditions: c terminus: a fixed tail appended
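Also: lentivirally expressed fusions sorted by FACS into six bins by GFP to DsRed ratio, PSI derived from sequencing read proportions per bin multiplied by bin number.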

Variant | protein stability index
RDIDLKNRYGGPPFAFVEFEDPRD | 3.91
RDIDLKNRHGGPPFAFVEFEDPRD | 4.21
RDIDLKNRIGGPPFAFVEFEDPRD | 4.24
RDIDLKNRSGGPPFAFVEFEDPRD | 4.12
RDIDLKNRMGGPPFAFVEFEDPRD | 4.04
RDIDLKNRKGGPPFAFVEFEDPRD | 3.69
RDIDLKNRNGGPPFAFVEFEDPRD | 4.5
RDIDLKNREGGPPFAFVEFEDPRD | 4.18
RDIDLKNRPGGPPFAFVEFEDPRD | 4.16
RDIDLKNRWGGPPFAFVEFEDPRD | 4.23
RDIDLKNRVGGPPFAFVEFEDPRD | 4.21
RDIDLKNRFGGPPFAFVEFEDPRD | 3.94
RDIDLKNRQGGPPFAFVEFEDPRD | 4.11
RDIDLKNRGGGPPFAFVEFEDPRD | 4.11
RDIDLKNRLGGPPFAFVEFEDPRD | 4.27
RDIDLKNRTGGPPFAFVEFEDPRD | 4.03
RDIDLKNRRGGWPFAFVEFEDPRD | 3.43
RDIDLKNRRGGVPFAFVEFEDPRD | 3.9
RDIDLKNRRGGGPFAFVEFEDPRD | 4.39
RDIDLKNRRGGTPFAFVEFEDPRD | 4.37
RDIDLKNRRGGYPFAFVEFEDPRD | 3.98
RDIDLKNRRGGRPFAFVEFEDPRD | 3.93
RDIDLKNRRGGLPFAFVEFEDPRD | 3.5
RDIDLKNRRGGAPFAFVEFEDPRD | 4.12

Variant | protein stability index
RDIDLKNRRGGFPFAFVEFEDPRD | 3.5
RDIDLKNRRGGCPFAFVEFEDPRD | 4.13
RDIDLKNRRGGQPFAFVEFEDPRD | 4.17
RDIDLKNRRGGKPFAFVEFEDPRD | 4.42
RDIDLKNRRGGEPFAFVEFEDPRD | 4.72
RDIDLKNRRGGIPFAFVEFEDPRD | 3.13
RDIDLKNRRGGSPFAFVEFEDPRD | 4
RDIDLKNRRGGDPFAFVEFEDPRD | 5.06
RDIDLKNRRGGHPFAFVEFEDPRD | 4.53
RDIDLKNRRGGMPFAFVEFEDPRD | 3.93
RDIDLKNRRGGNPFAFVEFEDPRD | 4.72
RDIDLKNRRGTPPFAFVEFEDPRD | 3.87
RDIDLKNRRGQPPFAFVEFEDPRD | 3.47
RDIDLKNRRGMPPFAFVEFEDPRD | 2.61
RDIDLKNRRGAPPFAFVEFEDPRD | 4.11
RDIDLKNRRGRPPFAFVEFEDPRD | 3.25
RDIDLKNRRGDPPFAFVEFEDPRD | 4.23
RDIDLKNRRGYPPFAFVEFEDPRD | 3.28
RDIDLKNRRGPPPFAFVEFEDPRD | 3.36
RDIDLKNRRGFPPFAFVEFEDPRD | 3
RDIDLKNRRGEPPFAFVEFEDPRD | 4.47
RDIDLKNRRGCPPFAFVEFEDPRD | 3.77
RDIDLKNRRGIPPFAFVEFEDPRD | 3
RDIDLKNRRGLPPFAFVEFEDPRD | 2.21

Variant | protein stability index
RDIDLKNRRGKPPFAFVEFEDPRD | 3.78
RDIDLKNRRGVPPFAFVEFEDPRD | 3.89
RDIDLKNRRGSPPFAFVEFEDPRD | 4.17
RDIDLKNRRGHPPFAFVEFEDPRD | 3.52
RDIDLKNRRGNPPFAFVEFEDPRD | 3.83
RDIDLKNRRGWPPFAFVEFEDPRD | 3.1
RDIDLKNRRGGPPFHFVEFEDPRD | 4.46
RDIDLKNRRGGPPFVFVEFEDPRD | 3.58
RDIDLKNRRGGPPFPFVEFEDPRD | 4.31
RDIDLKNRRGGPPFSFVEFEDPRD | 4.22
RDIDLKNRRGGPPFQFVEFEDPRD | 4.79
RDIDLKNRRGGPPFFFVEFEDPRD | 3.12
RDIDLKNRRGGPPFEFVEFEDPRD | 5.13
RDIDLKNRRGGPPFGFVEFEDPRD | 4.63
RDIDLKNRRGGPPFTFVEFEDPRD | 4.54
RDIDLKNRRGGPPFLFVEFEDPRD | 3.76
RDIDLKNRRGGPPFKFVEFEDPRD | 4.56
RDIDLKNRRGGPPFWFVEFEDPRD | 3.7
RDIDLKNRRGGPPFYFVEFEDPRD | 3.56
RDIDLKNRRGGPPFCFVEFEDPRD | 3.83
RDIDLKNRRGGPPFRFVEFEDPRD | 2.25
RDIDLKNRRGGPPFIFVEFEDPRD | 3.42
RDIDLKNRRGGPPFDFVEFEDPRD | 4.44
RDIDLKNRRGGPPFMFVEFEDPRD | 3.84

Variant | protein stability index
RDIDLKNRRGGPPFNFVEFEDPRD | 4.73
RDIDLKNRRGGPPFAFVEAEDPRD | 2.95
RDIDLKNRRGGPIFAFVEFEDPRD | 3.34
RDIDLKNRRGGPVFAFVEFEDPRD | 3.37
RDIDLKNRRGGPDFAFVEFEDPRD | 4.58
RDIDLKNRRGGPEFAFVEFEDPRD | 4.83
RDIDLKNRRGGPLFAFVEFEDPRD | 3.28
RDIDLKNRRGGPWFAFVEFEDPRD | 3.39
RDIDLKNRRGGPTFAFVEFEDPRD | 4.34
RDIDLKNRRGGPMFAFVEFEDPRD | 4.02
RDIDLKNRRGGPNFAFVEFEDPRD | 4.59
RDIDLKNRRGGPQFAFVEFEDPRD | 4.79
RDIDLKNRRGGPAFAFVEFEDPRD | 4.62
RDIDLKNRRGGPHFAFVEFEDPRD | 4.65
RDIDLKNRRGGPRFAFVEFEDPRD | 4.23
RDIDLKNRRGGPGFAFVEFEDPRD | 3.86
RDIDLKNRRGGPSFAFVEFEDPRD | 4.57
RDIDLKNRRGGPKFAFVEFEDPRD | 4.02
RDIDLKNRRGGPFFAFVEFEDPRD | 3.42
RDIDLKNRRGGPCFAFVEFEDPRD | 4.51
RDIDLKNRRGGPYFAFVEFEDPRD | 4
RDIDLKNRRGGPPFAFNEFEDPRD | 4.62
RDIDLKNRRGGPPFAFIEFEDPRD | 3.97
RDIDLKNRRGGPPFAFSEFEDPRD | 4.16

Variant | protein stability index
RDIDLKNRRGGPPFAFDEFEDPRD | 4.77
RDIDLKNRRGGPPFAFWEFEDPRD | 3.92
RDIDLKNRRGGPPFAFREFEDPRD | 4.33
RDIDLKNRRGGPPFAFCEFEDPRD | 4.2
RDIDLKNRRGGPPFAFHEFEDPRD | 4.38
RDIDLKNRRGGPPFAFQEFEDPRD | 4.61
RDIDLKNRRGGPPFAFEEFEDPRD | 4.95
RDIDLKNRRGGPPFAFPEFEDPRD | 4.63
RDIDLKNRRGGPPFAFYEFEDPRD | 4.42
RDIDLKNRRGGPPFAFFEFEDPRD | 4.64
RDIDLKNRRGGPPFAFAEFEDPRD | 4.35
RDIDLKNRRGGPPFAFTEFEDPRD | 4.75
RDIDLKNRRGGPPFAFKEFEDPRD | 4.62
RDIDLKNRRGGPPFAFMEFEDPRD | 4.24
RDIDLKNRRGGPPFAFGEFEDPRD | 4.43
RDIDLKNRRGGPPFAFLEFEDPRD | 4.13
RDIDLKNRRGGPPCAFVEFEDPRD | 4.91
RDIDLKNRRGGPPDAFVEFEDPRD | 4.86
RDIDLKNRRGGPPLAFVEFEDPRD | 3.92
RDIDLKNRRGGPPVAFVEFEDPRD | 4.55
RDIDLKNRRGGPPSAFVEFEDPRD | 5.3
RDIDLKNRRGGPPHAFVEFEDPRD | 5.01
RDIDLKNRRGGPPNAFVEFEDPRD | 4.58
RDIDLKNRRGGPPYAFVEFEDPRD | 4.28

Variant | protein stability index
RDIDLKNRRGGPPKAFVEFEDPRD | 4.51
RDIDLKNRRGGPPPAFVEFEDPRD | 5.05
RDIDLKNRRGGPPTAFVEFEDPRD | 4.9
RDIDLKNRRGGPPGAFVEFEDPRD | 4.92
RDIDLKNRRGGPPIAFVEFEDPRD | 4.37
RDIDLKNRRGGPPRAFVEFEDPRD | 4.66
RDIDLKNRRGGPPWAFVEFEDPRD | 3.77
RDIDLKNRRGGPPMAFVEFEDPRD | 4.26
RDIDLKNRRGGPPQAFVEFEDPRD | 5.27
RDIDLKNRRGGPPAAFVEFEDPRD | 5.04
RDIDLKNRRGGPPEAFVEFEDPRD | 5.48
RDIDLKNRRGGPPFASVEFEDPRD | 4.7
RDIDLKNRRGGPPFAWVEFEDPRD | 3.97
RDIDLKNRRGGPPFAIVEFEDPRD | 4.36
RDIDLKNRRGGPPFAMVEFEDPRD | 4.88
RDIDLKNRRGGPPFADVEFEDPRD | 5.04
RDIDLKNRRGGPPFAEVEFEDPRD | 5.2
RDIDLKNRRGGPPFAPVEFEDPRD | 5.26
RDIDLKNRRGGPPFAVVEFEDPRD | 4.62
RDIDLKNRRGGPPFARVEFEDPRD | 5
RDIDLKNRRGGPPFANVEFEDPRD | 4.91
RDIDLKNRRGGPPFAYVEFEDPRD | 4.26
RDIDLKNRRGGPPFAAVEFEDPRD | 5.03
RDIDLKNRRGGPPFAHVEFEDPRD | 4.77

Variant | protein stability index
RDIDLKNRRGGPPFATVEFEDPRD | 4.96
RDIDLKNRRGGPPFAKVEFEDPRD | 4.89
RDIDLKNRRGGPPFAQVEFEDPRD | 5
RDIDLKNRRGGPPFAGVEFEDPRD | 5.32
RDIDLKNRRGGPPFACVEFEDPRD | 4.45
RDIDLKNRRGGPPFALVEFEDPRD | 4.81
RDIDLKNRRGGPPFAFVSFEDPRD | 2
RDIDLKNRRGGPPFAFVWFEDPRD | 1.88
RDIDLKNRRGGPPFAFVGFEDPRD | 2.77
RDIDLKNRRGGPPFAFVAFEDPRD | 2.18
RDIDLKNRRGGPPFAFVDFEDPRD | 3.22
RDIDLKNRRGGPPFAFVTFEDPRD | 2.74
RDIDLKNRRGGPPFAFVQFEDPRD | 2.53
RDIDLKNRRGGPPFAFVCFEDPRD | 2.4
RDIDLKNRRGGPPFAFVHFEDPRD | 2.51
RDIDLKNRRGGPPFAFVLFEDPRD | 1.9
RDIDLKNRRGGPPFAFVRFEDPRD | 3.13
RDIDLKNRRGGPPFAFVMFEDPRD | 2.35
RDIDLKNRRGGPPFAFVPFEDPRD | 2.99
RDIDLKNRRGGPPFAFVKFEDPRD | 2.64
RDIDLKNRRGGPPFAFVFFEDPRD | 1.81
RDIDLKNRRGGPPFAFVYFEDPRD | 2.3
RDIDLKNRRGGPPFAFVNFEDPRD | 3.24
RDIDLKNRRGGPPFAFVIFEDPRD | 2.24

Variant | protein stability index
RDIDLKNRRGGPPFAFVVFEDPRD | 2.2
RDIDLKNRRHGPPFAFVEFEDPRD | 3.85
RDIDLKNRRRGPPFAFVEFEDPRD | 2.96
RDIDLKNRRTGPPFAFVEFEDPRD | 4.3
RDIDLKNRRQGPPFAFVEFEDPRD | 4.18
RDIDLKNRRIGPPFAFVEFEDPRD | 3.41
RDIDLKNRRPGPPFAFVEFEDPRD | 3.73
RDIDLKNRRVGPPFAFVEFEDPRD | 3.71
RDIDLKNRREGPPFAFVEFEDPRD | 4.2
RDIDLKNRRCGPPFAFVEFEDPRD | 3.22
RDIDLKNRRSGPPFAFVEFEDPRD | 4.21
RDIDLKNRRWGPPFAFVEFEDPRD | 2.77
RDIDLKNRRKGPPFAFVEFEDPRD | 3.42
RDIDLKNRRMGPPFAFVEFEDPRD | 3.51
RDIDLKNRRFGPPFAFVEFEDPRD | 3.9
RDIDLKNRRLGPPFAFVEFEDPRD | 3.51
RDIDLKNRRYGPPFAFVEFEDPRD | 3.19
RDIDLKNRRNGPPFAFVEFEDPRD | 3.63
RDIDLKNRRDGPPFAFVEFEDPRD | 4.15
RDIDLKNRRAGPPFAFVEFEDPRD | 3.76
